In CN117545772A (FUSION THERAPEUTICS INC, dated 2024):
“And” between values parts separate entries of the source, which are not always exact repeats. Equal entries are not always repeated.

T1: 重组人CD123抗原(细胞外结构域，Sino Biological) (human, UniProt P26951 19-305)
T1 construct: Bought; also called 重组的纯化CD123抗原
T1 sequence: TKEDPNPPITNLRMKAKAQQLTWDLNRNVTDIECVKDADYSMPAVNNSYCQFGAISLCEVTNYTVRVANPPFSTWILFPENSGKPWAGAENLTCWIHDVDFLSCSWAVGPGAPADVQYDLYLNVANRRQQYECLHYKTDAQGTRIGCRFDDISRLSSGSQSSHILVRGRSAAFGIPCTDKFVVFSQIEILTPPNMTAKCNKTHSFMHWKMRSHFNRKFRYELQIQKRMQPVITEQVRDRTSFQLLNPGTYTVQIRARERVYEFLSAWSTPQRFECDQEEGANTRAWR

B1: 1D2-5C8var1(Y105F)-Fc (bispecific antibody, V domains shown)
V domain 1: EVQLLESGGGSVQPGGSLRLSCAASGRPFSNYAMSWFRQAPGKEREFVSAISWSGGSTSYADSVKGRFTISRDNSKNTLYLQMNSLRAEDTAVYYCAAQFSGADFGFGRLGIRGYEYDYWGQGTQVTVSS
V domain 2: EVQLVESGGGLVQAGGSLRLSCAASGRTASSYVMGWFRQAPGKEREFVAVINWNGDSTYYTDSVKGRFAISRDNAKNTVYLQMNSLKPEDTAVYYCAADTRREWYRDGYWGPPARYEYDYRGQGTQVTVSS
B2: 抗CD123 VHH 1A3 (VHH)
VHH: EVQLVESGGGLVQAGGSLRLSCAASGRAINTYAMAWFRQAPGKERDFVATISYSGGTTDYAGSVKGRFTISRDNAENTVYLQMNSLKPEDTAVYYCAARDRYNPLARNYNYWGQGTQVTVSS
notes: also called 1A3抗体

Columns and labels:
人CD123 (在细胞上表达) [1] = target: T2, 人CD123 (在细胞上表达) (human, UniProt P26951 19-378); experiment: cell-based or functional assay
[2] = target: T1, 重组人CD123抗原(细胞外结构域，Sino Biological); experiment: phage ELISA on captured recombinant antigen
人CD123 (在细胞上表达) [3] = target: T2, 人CD123 (在细胞上表达); experiment: flow cytometry on the C1R-CD1d cells expressing CD123 used for immunisation

Binder	EC50 of T细胞介导的THP-1靶细胞的细胞毒性 (24小时) (人CD123 (在细胞上表达) [1])	THP-1裂解的EC50 (2号供体) (人CD123 (在细胞上表达) [1]) [pM]	THP-1靶细胞裂解的效力(EC50), THP-1:pDC:Vγ9Vδ2T 1:1:2共培养 (人CD123 (在细胞上表达) [1]) [pM]	pDC裂解的EC50 (2号供体) (人CD123 (在细胞上表达) [1]) [pM]	pDC裂解的EC50相对于THP-1裂解的EC50 (人CD123 (在细胞上表达) [1]) [fold]	binding result [2]	binding result (人CD123 (在细胞上表达) [3])
B1	1 pM and 3 pM	1	~1	11	~10	–	–
B2	–	–	–	–	–	binds	binds
